The values below come from patent US20250075190A1, “DE NOVO DESIGNED LUCIFERASE” (UNIVERSITY OF WASHINGTON, priority 2022, published 2025).

Usually Km stands for the concentration of substrate that gives half-maximal velocity. Broadly, the kcat is the maximal rate divided by the concentration of active sites. By kcat/Km is commonly meant the second-order rate constant that governs catalysis at low substrate concentration.

Changes are numbered by the printed parent chain. Numbers in names are those of the source.

Substrate in data set [1]: Oc1ccc(Cc2nc3c(Cc4ccccc4)nc(-c4ccc(O)cc4)cn3c2O)cc1
Nature of the data set: Michaelis-Menten kinetics of native Renilla luciferase (RLuc) with CTZ. The data set is classed as biochemical, Renilla reniformis. The conditions noted are these: other: substrate CTZ; Table 3; pH 8.0. The text has this: (§1) Synthetic genes and oligonucleotides were purchased from Integrated DNA Technologies or GenScript. The synthetic gene was inserted between NdeI and XhoI sites of a pET29b+ vector, containing an N-terminal hexahistidine tag followed by a TEV protease cleavage site and a C-terminal stop codon. Restriction endonucleases, Q5 PCR polymerase, and T4 ligase were purchased from NEB. Plasmid DNA, PCR products, or digested fragments were purified by Qiagen DNA purification kits. DNA sequences were analyzed by Genewiz. Coelenterazine (CTZ) was purchased from Gold Biotechnology. Diphenylterazine (DTZ), pyridyl diphenylterazine (8pyDTZ), and Furimazine (FRZ) were purchased from MedChemExpress. […] DNA and protein concentrations were determined by a NanoDrop™ small-volume 8 channel UV/vis spectrometer. […] All luminescence measurements were acquired by a Biotek Synergy Neo2T™ Multi-Mode Plate Reader. To convert relative arbitrary unit (RLU) to the number of photons, Neo2 plate reader was calibrated by determining the chemiluminescence of luminol with known quantum yield in the presence of horseradish peroxidase and hydrogen peroxide in K2CO3 aqueous solution as previously described^45. SDS PAGE and luminescence images were captured by a Bio-Rad ChemiDocT™ XRS+. Images were analyzed using the Fiji image analysis software.
For Michaelis-Menten kinetics measurements, 25 μL of serial diluted DTZ substrate in Tris pH 8.0 buffer was added into the wells of a white 96-well half-area microplate containing 25 μL of purified luciferases (final enzyme concentration: 100 nM; substrate concentration: 0.78 to 50 μM). […] The luminescence signals were monitored until the reactions were completed (0.1 s integration and measurements were taken every 5 s for a total of 40 min). […] In vitro luminescence activity measurements of LuxSit-i expressing HEK293T or HeLa cells were done similarly as 15,000 intact cells or lysates were used in the assay instead of purified luciferases. […]

Data set [2] in a line: Circular dichroism spectra and thermal denaturation. The data set is classed as physicochemical. To be noted: 220 nm, 25° C. to 95° C.
Source text: as §1
Purified protein samples were prepared at 15 μM in pH 7.4 10 mM phosphate buffer. Spectra from 190 nm to 260 nm were recorded at 25° C., 50° C., 75° C., 95° C., and after cooling back to 25° C. Thermal denaturation was monitored at 220 nm from 25° C. to 95° C. […]
Background: CD spectra are sensitive to the conformation of chiral molecules.

For data set [3] the following is noted: for Relative emission intensity: integrated luminescence intensity over the first 20 min, normalized to LuxSit, 25 μM DTZ in Tris pH 8.0 buffer; for increase of activity over LuxSit: DTZ.
Protocol: Each colony was expressed individually in each well of 96-well plates (1 mL culture) and purified accordingly (see Methods). (a) Individual luminescence activity of each selected mutant was plotted and compared to the parent LuxSit. Luminescence activities were measured in the presence of 25 μM DTZ. Luminescence activity (RLU) was shown as the integrated signal over the first 15 min. Statistical analysis of the amino acid frequency versus the luciferase activity at residue (b) 60, (c) 96, and (d) 110.
The cells were plated on 150 mm×15 mm LB agar plates supplemented with carbenicillin and L-arabinose, incubated at 37° C. overnight, and left at 4° C. for another 24 h. As described in the screening of luciferase libraries, colony-based screening by spraying DTZ solution was used to identify active colonies. […] The plates were shaken at 37 C overnight (˜16-18 h) on 96-well plate shakers at 1,100 rpm. Cells were pelleted by centrifugation at 4,000 g for 15 min in a tabletop centrifuge. Media was discarded and the cell pellets were resuspended in 0.2 mL BugBuster HT Protein Extraction buffer. The plates were transferred back to 96-well plate shakers and incubated at 1,100 rpm for an additional 30 min. Cellular debris was pelleted again by centrifugation at 4,000 g for 15 min, soluble lysates were transferred to a new semi-deep 96-well plate, and incubated with 10 μL of magnetic Ni-NTA beads for 30 min to allow binding. The magnetic extractor was used to first transfer the beads from the binding plates to wash plates with 200 μL IMAC wash buffer in each well, and then transfer the beads to elusion plates containing 30 μL IMAC elution buffer in each well. The concentrations of all proteins in each well were determined by the Bradford assay directly. The elution solution in each well was used to make a 25 μL protein solution at indicated concentration and mixed with 25 μL of 50 μM DTZ PBS solution. The luminescence signals were acquired over a course of 15 min while the actual point mutation was identified by sequencing.
The nature of data set [4]: Luciferase activities of re-designed sequences based on LuxSit-i (Table 1). It is filed as biochemical. To be noted: LuxSit-f and re-designed sequences based on LuxSit-i (Table 1). The text has this: In another embodiment, the proteins comprise an amino acid sequence at least 30%, 35%, 40%, 45%, 50%, 55%, 60%, 65%, 70%, 75%, 80%, 85%, 90%, 91%, 92%, 93%, 94%, 95%, 96%, 97%, 98%, 99%, or 100% identical to the amino acid selected from the group consisting of SEQ ID NO:1-181, as shown in Table 1. SEQ ID NO:5-181 in Table 1 are re-designed amino acid sequences based on LuxSit-i (SEQ ID NO:2), with their luciferase activities shown.

Data set [5] is described as follows: Michaelis-Menten kinetics measurements of purified luciferases. The conditions noted are these: DTZ; mean (95% CI), n = 3. The data set is classed as biochemical. How it is done:
For Michaelis-Menten kinetics measurements, 25 μL of serial diluted DTZ substrate in Tris pH 8.0 buffer was added into the wells of a white 96-well half-area microplate containing 25 μL of purified luciferases (final enzyme concentration: 100 nM; substrate concentration: 0.78 to 50 μM). Measurements were taken every 1 min (0.1 s integration and 10 s shaking between each interval) for a total of 20 min. Initial velocities were estimated as the average of the light intensities from the first three data points to fit the Michaelis-Menten equation. All relative arbitrary unit (RLU) per second values were converted to photon/s by the luminol-H2O2—HRP calibration method^45. Following the equation: Imax=LQY×kcat×[E], Imax is the maximal photon flux (photon s^−1), [E] is the total enzyme concentration, and V ax is the maximum photon flux per molecule (photon s^−1 molecule^−1) from the fitting of the Michaelis-Menten equation. To determine the luminescent quantum yields, 25 μL of 5 μM individual substrate in PBS was injected into 25 μL PBS containing 100 nM corresponding luciferase. DTZ was used for all LuxSit variants while CTZ was used as the substrate of native RLuc. The luminescence signals were monitored until the reactions were completed (0.1 s integration and measurements were taken every 5 s for a total of 40 min). […] To record emission spectra, 25 μL of 50 μM DTZ in PBS were injected into 25 μL of 200 nM pure luciferases and the emission spectra were collected with 0.1 s integration and 2 nm increments from 300 to 700 num. In vitro luminescence activity measurements of LuxSit-i expressing HEK293T or HeLa cells were done similarly as 15,000 intact cells or lysates were used in the assay instead of purified luciferases. To evaluate the substrate specificity, 25 μL of 50 μM substrate analogs in PBS were added to 25 μL of 200 nM indicated luciferases, and the signals were recorded over 20 min. Data were shown as the total luminescence signal over the first 10 min. We normalized the data by setting the highest emission substrate at 100%.

Data set [6] can be described thus: Luminescent quantum yield of LuxSit variants. It is filed as biochemical. The conditions noted are these: consuming 125 pmol of DTZ in PBS with 50 nM recombinant luciferase; estimated relative to reported quantum yield of RLuc; mean ± s.d., n = 3. The procedure:
FIG. 10. Additional characterization of LuxSit variants. (a) Normalized emission kinetics of 15,000 intact HeLa cells expressing LuxSit-i, 100 nM purified LuxSit-i, or 100 nM purified LuxSit-f in the presence of 50 μM DTZ. The more extended emission kinetics in HeLa cells is likely due to the diffusion rate of DTZ across cell membranes. […] (c) Luminescent quantum yield was estimated from the integrated luminescence signal until completely converting 125 pmol substrates to photons in the presence of 50 nM corresponding luciferase (see Methods). All data points were plotted as the average of triplicate measurements.
For Michaelis-Menten kinetics measurements, 25 μL of serial diluted DTZ substrate in Tris pH 8.0 buffer was added into the wells of a white 96-well half-area microplate containing 25 μL of purified luciferases (final enzyme concentration: 100 nM; substrate concentration: 0.78 to 50 μM). […] The luminescence signals were monitored until the reactions were completed (0.1 s integration and measurements were taken every 5 s for a total of 40 min). […] In vitro luminescence activity measurements of LuxSit-i expressing HEK293T or HeLa cells were done similarly as 15,000 intact cells or lysates were used in the assay instead of purified luciferases. […] Data were shown as the total luminescence signal over the first 10 min. […]

B1: native Renilla reniformis luciferase (RLuc) (Renilla reniformis) (protein)
chain: MTSKVYDPEQRKRMITGPQWWARCKQMNVLDSFINYYDSEKHAENAVIFLHGNAASSYLWRHVVPHIEPVARCIIPDLIGMGKSGKSGNGSYRLLDHYKYLTAWFELLNLPKKIIFVGHDWGACLAFHYSYEHQDKIKAIVHAESVVDVIESWDEWPDIEEDIALIKSEEGEKMVLENNFFVETMLPSKIMRKLEPEEFAAYLEPFKEKGEVRRPTLSWPREIPLVKGGKPDVVQIVRNYNAYLRASDDLPKMFIESDPGFFSNAIVEGAKKFPNTEFVKVKGLHFSQEDAPDEMGKYIKSFVERVLKNEQ
notes: host and tag of RLuc not clearly stated
Turning to B1, in data set [1], the Michaelis constant (Km) worked out at 1.5 µM, the kcat worked out at 4.9 s⁻¹ and the kcat/Km was 3.3e+06 M⁻¹ s⁻¹.

B2: LuxSit: de novo designed DTZ luciferase, 117 residues, SEQ ID NO:1 (protein)
chain: MSEEQIRQFLRRFYEALDSGDADTAASLFHPGVTIHLWDGVTFTSREEFREWFERLFSTRKDAQREIKSLEVRGDTVEVHVQLHATHNGQKHTVDATHHWHFRGNRVTEMRVHINPTG
modifications: VARIANT 1 optionally absent; VARIANT 118 optionally absent
As to B2, in data set [2], the “thermal stability (CD melting)” value was “not fully unfolded at 95 °C”. The molecule further registered a Relative emission intensity in data set [3] of 1. In addition, the Activity in data set [4] is recorded as 75.3.

B3: A96M: LuxSit mutant A96M (protein)
chain: B2 chain with A96M
modifications: VARIANT 1 optionally absent; VARIANT 118 optionally absent
In the case of B3, in data set [3], the “increase of activity over LuxSit” value was 16 fold and the Relative emission intensity is 16.4.

B4: M110V: LuxSit mutant M110V (protein)
chain: B2 chain with M110V
modifications: VARIANT 1 optionally absent; VARIANT 118 optionally absent
Turning to B4, in data set [5], the Km came to 30.3 µM and the Vmax is on record as 7.1(6.2-8.4) ×10^−2 photon s^−1 molecule^−1. In data set [3], the “increase of activity over LuxSit” value was 19 fold and the Relative emission intensity was 19.3.

B5: LuxSit-f: LuxSit variant A96M/M110V, SEQ ID NO:3, strong initial flash emission (protein)
chain: B2 chain with A96M, M110V
modifications: VARIANT 1 optionally absent; VARIANT 118 optionally absent
Turning to B5, the “thermal stability (CD melting)” value in data set [2] is “thermostable”. For the same molecule, the “LQY (luminescent quantum yield)” value in data set [6] is listed as 10.9 ± 1.5%. Moreover, the Relative emission intensity in data set [3] turned out to be 60.9. The Activity in data set [4] is 534.5.
